Reference: publication PMC8316672 (Journal of Molecular Biology, 2021)
Changes are numbered by the printed parent chain.

B1: Fab 15033 (Fab, V domains shown)
VH: EVQLVESGGGLVQPGGSLRLSCAASGFDLGGYSMHWVRQAPGKGLEWVAGIYASGGATAYADSVKGRFTISADTSKNTAYLQMNSLRAEDTAVYYCARSYYYGGFGMDYWGQGTLVTVSS
VL: DIQMTQSPSSLSASVGDRVTITCRASQSVSSAVAWYQQKPGKAPKLLIYSASDLYSGVPSRFSGSRSGTDFTLTISSLQPEDFATYYCQQSYRYPITFGQGTKVEIK
B2: Fab 15033-7 (Fab, V domains shown)
VH: B1 VH
VL: B1 VL with Y92H, R93T

Target: SARS-CoV-2 RBD (residues 328–528), deglycosylated, His tag removed (crystallography) (SARS-CoV-2, UniProt P0DTC2)
Experiment: crystal structure

Binder | binding result
B1 | binds
B2 | binds
